According to the supplement of paper PMC10065799, “High-throughput profiling of sequence recognition by tyrosine kinases and SH2 domains using bacterial peptide display” (eLife, 2023):

What follows are sequences tested on c-Src (assay: phosphorylation enrichment, bacterial display (enrichment ratio); higher = better substrate or ligand; peptides without Tyr show the background).
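Throughout, for SH2 binding enrichment of the phosphorylated peptide, bacterial display: peptide library displayed on the E. coli surface as eCPX fusions, selected cells deep-sequenced, score is each peptide's frequency after selection divided by its frequency in the input.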
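Throughout, for phosphorylation enrichment, bacterial display: 11-residue human phosphosite peptides and single-mutation variants displayed on the E. coli surface, counted by deep sequencing, each peptide's frequency after selection divided by its frequency in the unselected input library; frequency after pTyr selection over input frequency; kinase dosed for 20-30% of maximal phosphorylation in three min.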

Point of comparison: CDDGKYVFVVT [RPS6KA3_Y488_Y483C_YF], phosphorylation enrichment 0.412. Against it:
- LDLPGYCPLRE [CCDC116_Y291] — higher, 0.773
- RHFVFYFSFLL [PTEN_Y177_R173H_YF] — higher, 0.653
- ATATDYHTTSH [SLC4A1_Y46] — lower, 0.334
- SMAKYYASEIA [ACADSB_Y373] — higher, 0.452
- SSSAIYDNPDL [DCP1B_Y191_N195D] — higher, 2.7
- GARGRYIMGGP [TNK1_Y277_V278I] — higher, 0.522
- VNQSGYTLIRK [ATP6V0A2_Y688_R685Q] — higher, 0.418
- MPLDQYSPSFP [FGFR1_Y776] — higher, 0.552
- EDSEYYKAFEE [CASQ2_Y179] — higher, 0.547
- PSQRRYVFFFS [PTEN_Y174_YF] — higher, 0.6
- HFNLTYRILSF [MMP23B_Y95] — higher, 0.636
- LEIETCRRLLD [KRT12_Y429_Y429C] — higher, 0.415
- HYEDGYPGGSD [CTNND1_Y221] — higher, 1.13
- LLREWYLPDPF [SIX3_Y225_Q227P_YF] — higher, 0.747
- QEGPEYWDGNT [HLA-B_Y83_R86G] — higher, 0.854
- DLAGRYYALKS [CKB_Y173] — higher, 0.571
- PFRFIYMAVQH [PTPN11_Y515_Q510P_YF] — higher, 1.26
- KDAGDYKFKAK [LRIT3_Y326_C328Y_YF] — lower, 0.305
- RGGWAYVLHPT [TRMT61A_Y67_V66A] — higher, 0.671
- NFYEYYVDDPP [GCHFR_Y48] — higher, 4.3
- LNWIFYKDQTG [RS1_Y166_YF] — higher, 0.567
- SASQEYHIVKK [PDZD2_Y557] — higher, 0.441
- CRIELYRIVES [IGFBP1_Y181_V183I] — higher, 0.53
- THQNSYQPGRK [CEFIP_Y210] — lower, 0.299
- LVLIKYLPEWT [PSEN1_Y240_F237L] — higher, 0.463
- KALKQYRAGPS [DDX27_Y763] — lower, 0.407
- FASTGYGIAIQ [GRIN2B_Y762] — lower, 0.408
- CSSGGYEPRGR [FUS_Y239_R234C] — lower, 0.353
- RHPYFYAPELL [ALB_Y174] — higher, 0.776
- LFEDRYLLGTS [ASS1_Y87_YF] — lower, 0.258
- QTLTDYDIRFY [CSNK2A1_Y131] — higher, 0.603
- SMEGLYSSTQD [CLIC5_Y111] — higher, 3.13

Each sequence was assayed against Grb2 SH2 (UniProt P62993) (assay: SH2 binding enrichment of the phosphorylated peptide, bacterial display (enrichment ratio); higher = better substrate or ligand; peptides without Tyr show the background).
Grb2 SH2, sequence (P62993 whole entry, looked up): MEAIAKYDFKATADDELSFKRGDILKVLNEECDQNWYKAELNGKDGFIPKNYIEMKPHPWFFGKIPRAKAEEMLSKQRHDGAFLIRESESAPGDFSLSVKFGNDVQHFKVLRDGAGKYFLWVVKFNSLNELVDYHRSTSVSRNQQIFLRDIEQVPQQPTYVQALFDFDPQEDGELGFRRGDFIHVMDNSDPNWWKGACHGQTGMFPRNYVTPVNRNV

Point of comparison: SASQEYHIVKK [PDZD2_Y557], SH2 binding enrichment 0.78. Against it:
- LDLPGYCPLRE [CCDC116_Y291] — lower, 0.754
- CDDGKYVFVVT [RPS6KA3_Y488_Y483C_YF] — lower, 0.59
- RHFVFYFSFLL [PTEN_Y177_R173H_YF] — higher, 1.88
- ATATDYHTTSH [SLC4A1_Y46] — higher, 0.872
- SMAKYYASEIA [ACADSB_Y373] — lower, 0.756
- SSSAIYDNPDL [DCP1B_Y191_N195D] — lower, 0.667
- GARGRYIMGGP [TNK1_Y277_V278I] — higher, 0.811
- VNQSGYTLIRK [ATP6V0A2_Y688_R685Q] — higher, 0.861
- MPLDQYSPSFP [FGFR1_Y776] — higher, 1.08
- EDSEYYKAFEE [CASQ2_Y179] — higher, 0.921
- PSQRRYVFFFS [PTEN_Y174_YF] — higher, 1.3
- HFNLTYRILSF [MMP23B_Y95] — lower, 0.586
- LEIETCRRLLD [KRT12_Y429_Y429C] — higher, 0.883
- HYEDGYPGGSD [CTNND1_Y221] — higher, 0.915
- LLREWYLPDPF [SIX3_Y225_Q227P_YF] — higher, 1.3
- QEGPEYWDGNT [HLA-B_Y83_R86G] — higher, 0.908
- DLAGRYYALKS [CKB_Y173] — higher, 0.824
- PFRFIYMAVQH [PTPN11_Y515_Q510P_YF] — higher, 1.02
- KDAGDYKFKAK [LRIT3_Y326_C328Y_YF] — higher, 0.792
- RGGWAYVLHPT [TRMT61A_Y67_V66A] — higher, 0.905
- NFYEYYVDDPP [GCHFR_Y48] — lower, 0.709
- LNWIFYKDQTG [RS1_Y166_YF] — higher, 0.937
- CRIELYRIVES [IGFBP1_Y181_V183I] — higher, 0.888
- THQNSYQPGRK [CEFIP_Y210] — higher, 0.903
- LVLIKYLPEWT [PSEN1_Y240_F237L] — higher, 2.06
- KALKQYRAGPS [DDX27_Y763] — higher, 1.04
- FASTGYGIAIQ [GRIN2B_Y762] — lower, 0.721
- CSSGGYEPRGR [FUS_Y239_R234C] — higher, 0.887
- RHPYFYAPELL [ALB_Y174] — higher, 1.34
- LFEDRYLLGTS [ASS1_Y87_YF] — higher, 0.918
- QTLTDYDIRFY [CSNK2A1_Y131] — higher, 0.795
- SMEGLYSSTQD [CLIC5_Y111] — lower, 0.777

Each sequence was assayed against SHP2-C SH2 in the same assay as above.

Point of comparison: MPLDQYSPSFP [FGFR1_Y776], SH2 binding enrichment 0.803. Against it:
- LDLPGYCPLRE [CCDC116_Y291] — lower, 0.736
- CDDGKYVFVVT [RPS6KA3_Y488_Y483C_YF] — lower, 0.556
- RHFVFYFSFLL [PTEN_Y177_R173H_YF] — higher, 0.962
- ATATDYHTTSH [SLC4A1_Y46] — lower, 0.661
- SMAKYYASEIA [ACADSB_Y373] — lower, 0.634
- SSSAIYDNPDL [DCP1B_Y191_N195D] — lower, 0.621
- GARGRYIMGGP [TNK1_Y277_V278I] — lower, 0.674
- VNQSGYTLIRK [ATP6V0A2_Y688_R685Q] — higher, 9.3
- EDSEYYKAFEE [CASQ2_Y179] — lower, 0.748
- PSQRRYVFFFS [PTEN_Y174_YF] — higher, 1.64
- HFNLTYRILSF [MMP23B_Y95] — lower, 0.587
- LEIETCRRLLD [KRT12_Y429_Y429C] — lower, 0.64
- HYEDGYPGGSD [CTNND1_Y221] — lower, 0.786
- LLREWYLPDPF [SIX3_Y225_Q227P_YF] — higher, 1.06
- QEGPEYWDGNT [HLA-B_Y83_R86G] — lower, 0.653
- DLAGRYYALKS [CKB_Y173] — lower, 0.722
- PFRFIYMAVQH [PTPN11_Y515_Q510P_YF] — higher, 1.02
- KDAGDYKFKAK [LRIT3_Y326_C328Y_YF] — higher, 0.853
- RGGWAYVLHPT [TRMT61A_Y67_V66A] — lower, 0.654
- NFYEYYVDDPP [GCHFR_Y48] — lower, 0.505
- LNWIFYKDQTG [RS1_Y166_YF] — higher, 0.88
- SASQEYHIVKK [PDZD2_Y557] — higher, 0.893
- CRIELYRIVES [IGFBP1_Y181_V183I] — lower, 0.682
- THQNSYQPGRK [CEFIP_Y210] — higher, 0.98
- LVLIKYLPEWT [PSEN1_Y240_F237L] — higher, 1.99
- KALKQYRAGPS [DDX27_Y763] — higher, 0.804
- FASTGYGIAIQ [GRIN2B_Y762] — lower, 0.647
- CSSGGYEPRGR [FUS_Y239_R234C] — lower, 0.654
- RHPYFYAPELL [ALB_Y174] — higher, 0.891
- LFEDRYLLGTS [ASS1_Y87_YF] — lower, 0.537
- QTLTDYDIRFY [CSNK2A1_Y131] — lower, 0.775
- SMEGLYSSTQD [CLIC5_Y111] — lower, 0.446

These sequences were tested against c-Src SH2 in the same assay as above.

Point of comparison: SMEGLYSSTQD [CLIC5_Y111], SH2 binding enrichment 0.542. Against it:
- LDLPGYCPLRE [CCDC116_Y291] — higher, 0.611
- CDDGKYVFVVT [RPS6KA3_Y488_Y483C_YF] — lower, 0.4
- RHFVFYFSFLL [PTEN_Y177_R173H_YF] — higher, 1.4
- ATATDYHTTSH [SLC4A1_Y46] — higher, 0.642
- SMAKYYASEIA [ACADSB_Y373] — lower, 0.48
- SSSAIYDNPDL [DCP1B_Y191_N195D] — higher, 1.94
- GARGRYIMGGP [TNK1_Y277_V278I] — higher, 0.606
- VNQSGYTLIRK [ATP6V0A2_Y688_R685Q] — higher, 8.52
- MPLDQYSPSFP [FGFR1_Y776] — lower, 0.518
- EDSEYYKAFEE [CASQ2_Y179] — higher, 0.614
- PSQRRYVFFFS [PTEN_Y174_YF] — higher, 0.819
- HFNLTYRILSF [MMP23B_Y95] — lower, 0.326
- LEIETCRRLLD [KRT12_Y429_Y429C] — higher, 0.648
- HYEDGYPGGSD [CTNND1_Y221] — higher, 0.924
- LLREWYLPDPF [SIX3_Y225_Q227P_YF] — higher, 0.863
- QEGPEYWDGNT [HLA-B_Y83_R86G] — lower, 0.367
- DLAGRYYALKS [CKB_Y173] — higher, 1.47
- PFRFIYMAVQH [PTPN11_Y515_Q510P_YF] — higher, 0.872
- KDAGDYKFKAK [LRIT3_Y326_C328Y_YF] — lower, 0.504
- RGGWAYVLHPT [TRMT61A_Y67_V66A] — lower, 0.437
- NFYEYYVDDPP [GCHFR_Y48] — higher, 0.679
- LNWIFYKDQTG [RS1_Y166_YF] — higher, 0.657
- SASQEYHIVKK [PDZD2_Y557] — higher, 0.792
- CRIELYRIVES [IGFBP1_Y181_V183I] — higher, 0.556
- THQNSYQPGRK [CEFIP_Y210] — higher, 0.673
- LVLIKYLPEWT [PSEN1_Y240_F237L] — higher, 1.21
- KALKQYRAGPS [DDX27_Y763] — lower, 0.438
- FASTGYGIAIQ [GRIN2B_Y762] — lower, 0.452
- CSSGGYEPRGR [FUS_Y239_R234C] — lower, 0.472
- RHPYFYAPELL [ALB_Y174] — higher, 0.796
- LFEDRYLLGTS [ASS1_Y87_YF] — lower, 0.529
- QTLTDYDIRFY [CSNK2A1_Y131] — higher, 0.548
